Assay: yeast display, Sf9 membrane polyspecificity reagent, FACS + sequencing; frameworks hold sequencing errors
Summary of the method: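 In a synthetic yeast display library (Saccharomyces cerevisiae BJ5465), nanobody expression was induced with galactose for 36–48 hours. FACS gates were set low and high (top ~1%) using anti-HA fluorescence for expression and streptavidin fluorescence for binding of the Sf9 membrane reagent. Each polyreactivity label is drawn from the gate of origin.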

Row | Sequence | polyreactivity (PSR sort gate)
1 | QVQLVESGGGLVQAGGSLRLSCAASGRTFYIYAMGGNRQATGKERELVAAITWRGGRTYYADSVKGRFTISRDNAKNTFYLQMNSLKPEDTAVYYCGARTGQGPMYKHWGQGTQVTLSS | high polyreactivity
2 | QVQLVESGGGLVQAGGSLRLSCAASGRTFYIYAMGWYRPAPGKERELVAAITSGRSTSYADSVKGRFTISRDNAKNTVYLQMNSLKPEDTAVYYCAADQYTYWFGYDYWGQGTQVTVSS | low polyreactivity
3 | QVQLVESGGGLVQAGGSLRLSCAASGRTFYIYAMGWYRQAPAKERELVAAITWSRGSSTYYADSVKGRFTISRDNAKNTVYLQMNSLKPEDTAVYYCAAETHYYWYEQYDYCGQGTQVTVSS | high polyreactivity
4 | QVQLVESGGGLVQAGGSLRLSCAASGRTFYIYAMGWYRQAPGKERELVAAISWGSGSTYYADSVKGRFTISRDNAKNTVYLQMNSLKPEDTAVYYCAAEYAYPSEWTYDYWGQGTQVTVSS | low polyreactivity
5 | QVQLVESGGGLVQAGGSLRLSCAASGRTFYIYAMGWYRQAPGTERELVAAITYGGGRTFYADSVKGRFTISRDKAKNTVYLQMNSLKPEDTAVYYCAADGRTLGRRYYYWGLGTQVTVSS | high polyreactivity
6 | QVQLVESGGGLVQAGGSLRLSCAASGRTFYIYVMGWDRQAPGKERELVAGITVRGGITNYADSVKGGFTSSRDNAKNTVYLQMNSLKPEDTAVYYCAVDDLGSEYDYWGQGTQVTVSS | low polyreactivity
7 | QVQLVESGGGLVQAGGSLRLSCAASGRTFYKNAMGWYRQAPGKEREFVASISVSGGRTYYADSVKGRFTISRDNAKNTVYLQMNSLKPEDTAVYYCNARASPLSQRDYWGQGTQVTVSS | low polyreactivity
8 | QVQLVESGGGLVQAGGSLRLSCAASGRTFYKYAMGWYRQAPGKERELVAAISSRGGRTYYADSVKGRFTISRDNAKNTVYLQMNSLKPEDTAVYYCAAKGRPDGKYDYWGQGTQVTVSS | high polyreactivity
9 | QVQLVESGGGLVQAGGSLRLSCAASGRTFYLNAMGWYRPAPGKERELVAAITRTGGRTYYADSVKGRFTISRDNAKNTVYLQMNSLKPEDTAVYYCAADYVNYSYEYWGQGTQVTVSS | high polyreactivity
10 | QVQLVESGGGLVQAGGSLRLSCAASGRTFYLYTMGWYRQAPGKERELVATISDGGGGTYYADSVKGRFTISRDNAKNTVYLQMNSLKPEDPAVYYCAADPIDVRDVPIPHVDFDYWGQGTQVTVSS | low polyreactivity
11 | QVQLVESGGGLVQAGGSLRLSCAASGRTFYNAMGWYRQAPGKERELVAAITTGGGTKYADSVKGRFTISRDNAKNTVYLQMNSLKPEDTEVYYCATDAPDRTHSDSGFDAGYDYWGQGTQVTLSS | low polyreactivity
12 | QVQLVESGGGLVQAGGSLRLSCAASGRTFYNTMGWYRQPPGKERELVAAISRGGITNYADSVKGRFTISRDNAKNTVYLQMNSLKPEDTAVYYCNAEPKLYYYYYKFDYWGQGTQVTVAS | high polyreactivity
13 | QVQLVESGGGLVQAGGSLRLSCAASGRTFYNYAMVWYRQAPGKERELVAAIDWGSDSTYYADSVKGRFTISRDNAKNTVYLQMNSLKPEDTAVYYCAAYLVSVYSRTYDYWGQGTQVTVSS | low polyreactivity
14 | QVQLVESGGGLVQAGGSLRLSCAASGRTFYPYAMGWYRQAPGKERELVAAISYRGGSTYYADSVKGRFTISRDNAKNTVYLQMNSLKPEDTAVYYCAKRGYASGSKWDYGYWGQGTQVTVSS | high polyreactivity
15 | QVQLVESGGGLVQAGGSLRLSCAASGRTFYPYAMGWYRQAPGKERELVAAITQSGGSTYYADSVKGRFTISRDNAKNTVFLEMNSLKPEDTAVYYCAKRGYDNYPFYYWGQGTQVTVSS | high polyreactivity
16 | QVQLVESGGGLVQAGGSLRLSCAASGRTFYPYAMGWYRQAPGKERELVATIRWTGGSTYYADSVKGRFTISRDNAKNTVYLQMNSLKPEDTAVYYCAAQNYFAFIRTYRYVHRPTYYYWGQGTQVTVSS | high polyreactivity
17 | QVQLVESGGGLVQAGGSLRLSCAASGRTFYPYTMGWYRQAPGKEMELVAAITTSTGNTYYADSVKGRFTISRDNAKNNVYLQMNILKPEDTSVYYCAADTVWRLDYWGQGTKVTVSS | low polyreactivity
18 | QVQLVESGGGLVQAGGSLRLSCAASGRTFYPYVMGWYRQAPGKEREFVAAISGTGGSTYYADSVKGRFTISRDNAKNTVYLQMNSLKPEDTAVYYCNRRIPYTSYSYGYWGQGTQVTVSS | high polyreactivity
19 | QVQLVESGGGLVQAGGSLRLSCAASGRTFYQNVMGWYRPAPGKERELVAAISQRGGRTYYADSVKGRFTISRDNAKNTVYLQMNSLKPEDTAVYYCNADSTVWPYDYWGQGTQVTVSS | low polyreactivity
20 | QVQLVESGGGLVQAGGSLRLSCAASGRTFYQYAMGWYRQAPGKERELVAAISKSGRRTYYADSVKGRFTISRDNAKNTVYLQINSLKPEDTAVYYCNAARYLTRWGRFYYWGEGTQVTVSS | high polyreactivity
21 | QVQLVESGGGLVQAGGSLRLSCAASGRTFYQYGMGWYRQAPGKERELVAAISDSGGGTYYADSVKGRFTISRDNAKHTVYLQMNSLKPEDTAVYFCAATYVGPRRRYYYWGQGTQVTVSS | high polyreactivity

Row | Sequence | polyreactivity (PSR sort gate)
22 | QVQLVESGGGLVQAGGSLRLSCAASGRTFYRNAMGWYRPAPGKERELVAAITSSGASTYYADSVKGRFTISRDNAKNTVYLQMKSLKPEDTAVYYCAAKYVFSVGNYRYDYWGQGTQVTGSS | low polyreactivity
23 | QVQLVESGGGLVQAGGSLRLSCAASGRTFYRNAMGWYRQAPGKERELVAAISRGDSTYYADSVKGRFTISRDNAKNTVYLQMNSLKPEDTAVYYCAKRARRIGDVNMGSWGQGTQVTVSS | low polyreactivity
24 | QVQLVESGGGLVQAGGSLRLSCAASGRTFYRNAMGWYRQATGKEREFVAVISVSGGSTYYADSVKGRFTISRDYAKNTVYLQMNSLKPEDTAVYYCGKRGPVRKTAYEYWGQGTQVTVSS | low polyreactivity
25 | QVQLVESGGGLVQAGGSLRLSCAASGRTFYRNDMGWYRQAPGKERELVAAITSSGGTTYADSVKGRFTISRDNAKNTVYLQMNSLKPEDTAVYYCAAVYAYPNIYDYWGQGTQVNVSS | low polyreactivity
26 | QVQLVESGGGLVQAGGSLRLSCAASGRTFYRYAMGWSRQAPGKERELVAGISGSGGRTYYADSVKGRFTISRDNAKNTVFLQMNSLKPEDTAVYYCNAYPHAYTGSTREGDYWGQGTQVTVSS | high polyreactivity
27 | QVQLVESGGGLVQAGGSLRLSCAASGRTFYRYAMGWYRQAPGKEREFVAAISNGGSNTRYADSVKGRFTISRDNAKNTVYLQMNSLKPEDTAVYYCAARAYQHYNWGQGTQVTVSS | high polyreactivity
28 | QVQLVESGGGLVQAGGSLRLSCAASGRTFYRYAMGWYRQAPGKERELVAAITSGDRTDYADSVKGRFTISRDNAKNTVYLQMNSLKPEDTAVYYCAADPYYVTDYDYWGEGTQVTVSS | low polyreactivity
29 | QVQLVESGGGLVQAGGSLRLSCAASGRTFYRYAMGWYRQAPGKERELVAVISTDGSSTYYADSVKGRFTISRDNAKNTVYLLMNSLKPEDTAVYYCAARSLAWLFGRNYWGQGTQVTVSS | high polyreactivity
30 | QVQLVESGGGLVQAGGSLRLSCAASGRTFYRYAMGWYRQPPGKESELVARIRATGGSTYYADSVKGRFTISRDYAKNTVYSQMNSLKPEDTAVYYCAAKIRWGSTWLGAGDYWGQGTQVTVSS | high polyreactivity
31 | QVQLVESGGGLVQAGGSLRLSCAASGRTFYSFNAMVCYRQAPVKERELVAAIVGDGGITYYADSVKGRFTISRDNANNTVFLQMNSLKPEDTAVYYCAAETLHSSDGEDDYWGQGTQVSVSS | low polyreactivity
32 | QVQLVESGGGLVQAGGSLRLSCAASGRTFYSNAMGWYRPAPGKERELGATISSGGSTNYADSVKGRFTISRDTAKNTVYLQINSVKPADTAVYYCDTRPDRINDYWGQGTQVTVSS | low polyreactivity
33 | QVQLVESGGGLVQAGGSLRLSCAASGRTFYSNAMGWYRQAPGKERELVAAITSGGSTNYADSVKGRFTISRDNAKNTVYLQMNSLKPEDSAVYYCAVRGYWTIRSRRYYYWGQGTQVTVSS | high polyreactivity
34 | QVQLVESGGGLVQAGGSLRLSCAASGRTFYSNAMGWYRQAPGKERELVAAITSTDDSTYYADSVKGRFTISRDNAKNTVYLQMNSLKPEDNAVYYCNRDGLIAIRGLWWVEYDYWGQGTQVTVSS | low polyreactivity
35 | QVQLVESGGGLVQAGGSLRLSCAASGRTFYSNAMGWYRQAPGKERELVAGINIGGGSTYYADSVKGRFTISRDNAKNTVYLQMNSLKPEDTAVYYCAARRWGAYRHGYWGQGTQVTVSS | high polyreactivity
36 | QVQLVESGGGLVQAGGSLRLSCAASGRTFYSYAMGWYRQAPGKERELVAAINTSGGRTHYADSVKGRFTISRDNAKNTVYLQMNCMKPEDTAVYYCAKLARSGTLTYYYWGQGTQVNVSS | high polyreactivity
37 | QVQLVESGGGLVQAGGSLRLSCAASGRTFYSYAMGWYRQAPGKERELVAAITSDGGTYYADSVKGRFTISRDNAKNTVYLQMNSLKPEDTAVYYCNAVGGWVTHWLLREGDYWGQGTQVTVSS | low polyreactivity
38 | QVQLVESGGGLVQAGGSLRLSCAASGRTFYSYAMGWYRQAPGKERELVAAMTSDGGTYYADSVKGRFTISRDNAKNTVYLQMNSLKPEDTAVYYCAAELYYWYYYWGQGTKVTVSS | low polyreactivity
39 | QVQLVESGGGLVQAGGSLRLSCAASGRTFYSYARGWYRQAPGKEREFFAAISRSGGSTYYADSVKGRFTISRDYAKNTVYLQMNSLKPEDTAVYYCAARYRRDDYDYWGQGTQVTVSS | high polyreactivity
40 | QVQLVESGGGLVQAGGSLRLSCAASGRTFYSYTMGWYRQAPGKERELVAAINRGGSTYYADSVKWRFTISRDNAKNTVYLQMNSLKPEDTAVYYCNADNWVYLYDYWGQGTQVTVSS | low polyreactivity
41 | QVQLVESGGGLVQAGGSLRLSCAASGRTFYTNAKGWYRQAPGKERELVAAISSDSSTNYADSVKGRLTISRDNAKNTVYLQMNSLKPEDTAVYYCNKVRQGWADYEYWGQGSQVTVSS | low polyreactivity
